Reference: article PMC4766306, “CYP96T1 of Narcissus sp. aff. pseudonarcissus Catalyzes Formation of the Para-Para' C-C Phenol Couple in the Amaryllidaceae Alkaloids” (Frontiers in Plant Science, 2016)

What was measured:
Assay type in all cases: cell-based, Narcissus aff. pseudonarcissus MK-2014
Settings in all cases: heme
[1] = substrate: COc1cc2c(cc1O)[C@@H](Cc1ccc(O)cc1)NCC2; assay: LC-MS/MS enzyme kinetics with Sf9-expressed CYP96T1
[2] = substrate: COc1cc2c(cc1O)[C@H](Cc1ccc(O)cc1)NCC2; assay: as above
[3] = substrate: COc1ccc(CN(C)CCc2ccc(O)cc2)cc1O; assay: LC-MS/MS enzyme kinetics with Sf9-expressed CYP96T1; CPR-only negative control
[4] = substrate: COc1ccc(CNCCc2ccc(O)cc2)cc1O; assay: as above

B1: CYP96T1 (Narcissus aff. pseudonarcissus MK-2014) (protein)
chain: MATSSSAWLMFSDHYPEILIAIACFLIFSLLLSARSSSEDSLPYNWPIFGMLPAIISNNQFNDFTTARLRKMGWTFIFKGPWLLDMDYIFTCDPSNINHMFNDNFENYPKGELGKVFDIFGNNIFNADGDLWHDHRKMAQTILWDGNYRTMQATFIRNKMDNALIPILDSAASKRKPVDLQDVFFRFTFDTSCFSVLAADPESLTMEFPAVPFSKAADQALDAALTRHITPRLIWKLKRFFNVGSERTLAVAWKVIDSYIYDKIAELKAKRKLVGKINSYDAVSFYMDNFNIHDDKFLRDNAFTYLLAQRNTQSLTMTWLFYALFENPKVELKILSELKSIVDESSERKFNDGFALFDSNMIQSAIYLHATLCEALRIYPPVPFEIKDAHKADVLPSGHKVRAGEKILFSPYAMARMKGIWGDDCLEFKPERWITGNGTLKHEPAYKFFAFSAGPRICLGKELSFTQMKMVVATIIYNFHLQMVKGHVVEQSNSILMDMKHGLMVQVRKRSVM
notes: CYP96T1 ORF (GenBank KT693311) expressed in Sf9 cells, co-expressed with Eschscholzia californica CPR
- Km [1]: 659 ± 104 µM
- kcat [1]: 0.0345 ± 0.00233 s⁻¹
- kcat/Km [1]: 52.5 M⁻¹ s⁻¹
- Km [2]: 637 ± 156 µM
- kcat [2]: 0.0223 ± 0.0025 s⁻¹
- kcat/Km [2]: 35.2 M⁻¹ s⁻¹
- Km [3]: 3.28 ± 2.27 µM
- kcat [3]: 0.0407 ± 0.009 s⁻¹
- kcat/Km [3]: 12400 M⁻¹ s⁻¹
- Km [4]: 1.13 ± 0.54 µM
- kcat [4]: 0.25 ± 0.0338 s⁻¹
- kcat/Km [4]: 217000 M⁻¹ s⁻¹
